Reference: patent US10450368 (DUKE UNIVERSITY, dated 2019)

Legend:
[1] = target: T1, CH505.TF mutant gp120 M8 (HIV-1); assay: direct-binding ELISA (OD450), panel 'CH505.TF gp120 M8'
T1 construct: domain: gp120

[2] = target: T2, SSB (UniProt P05455 1-408); assay: AtheNA, Ab 50 ug/ml
T2 sequence: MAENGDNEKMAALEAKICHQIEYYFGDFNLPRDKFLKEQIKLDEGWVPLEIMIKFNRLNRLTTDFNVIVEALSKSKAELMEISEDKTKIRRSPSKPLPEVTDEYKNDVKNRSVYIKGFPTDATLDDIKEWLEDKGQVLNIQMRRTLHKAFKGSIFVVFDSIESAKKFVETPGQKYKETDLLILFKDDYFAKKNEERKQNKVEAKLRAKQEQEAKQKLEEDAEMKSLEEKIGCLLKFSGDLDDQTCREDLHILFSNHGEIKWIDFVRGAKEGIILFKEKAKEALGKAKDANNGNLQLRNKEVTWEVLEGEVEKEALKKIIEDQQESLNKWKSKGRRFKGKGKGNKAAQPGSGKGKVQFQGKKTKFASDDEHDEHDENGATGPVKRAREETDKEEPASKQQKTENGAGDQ
From the text: (§1) AtheNA Multi-Lyte ANA Plus Test System is one such assay. This is luminex-based assay, which is also used to screen patient sera.

[3] = target: T3, Sm (Smith antigen); assay: AtheNA, Ab 50 ug/ml
T3 construct: Protein complex
From the text: as §1

[4] = target: T4, Histones; assay: AtheNA, Ab 50 ug/ml
T4 construct: Mixture of proteins
From the text: as §1

[5] = target: T5, RNP (ribonucleoprotein); assay: AtheNA, Ab 50 ug/ml
T5 construct: Protein-RNA complex
From the text: as §1

[6] = target: T6, Scl-70 (UniProt P11387 1-765); assay: AtheNA, Ab 50 ug/ml
T6 sequence: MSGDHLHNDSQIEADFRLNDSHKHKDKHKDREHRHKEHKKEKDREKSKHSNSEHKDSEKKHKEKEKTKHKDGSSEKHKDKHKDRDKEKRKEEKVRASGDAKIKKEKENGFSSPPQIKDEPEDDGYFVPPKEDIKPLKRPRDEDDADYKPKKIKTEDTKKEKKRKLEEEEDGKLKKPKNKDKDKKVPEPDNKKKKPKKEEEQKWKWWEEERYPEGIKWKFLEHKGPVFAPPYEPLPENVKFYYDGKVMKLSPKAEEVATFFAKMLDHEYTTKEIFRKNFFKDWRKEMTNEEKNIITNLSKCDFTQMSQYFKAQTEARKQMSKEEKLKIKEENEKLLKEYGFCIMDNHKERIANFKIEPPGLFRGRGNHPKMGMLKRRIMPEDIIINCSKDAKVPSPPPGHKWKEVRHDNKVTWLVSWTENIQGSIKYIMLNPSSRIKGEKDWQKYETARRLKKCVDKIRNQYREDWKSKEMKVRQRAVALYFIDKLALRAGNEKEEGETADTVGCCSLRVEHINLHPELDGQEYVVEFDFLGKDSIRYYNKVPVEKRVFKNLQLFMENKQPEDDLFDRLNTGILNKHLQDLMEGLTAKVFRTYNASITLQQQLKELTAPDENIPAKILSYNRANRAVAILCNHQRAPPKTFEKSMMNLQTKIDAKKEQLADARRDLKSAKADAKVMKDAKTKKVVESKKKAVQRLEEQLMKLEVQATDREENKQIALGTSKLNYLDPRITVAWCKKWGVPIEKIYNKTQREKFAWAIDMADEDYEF
From the text: as §1

[7] = target: T7, SSA; assay: AtheNA, Ab 50 ug/ml
T7 construct: also called SSA (Ro)
From the text: as §1

[8] = target: T2, SSB; assay: AtheNA, Ab 25 ug/ml
From the text: as §1

[9] = target: T3, Sm (Smith antigen); assay: AtheNA, Ab 25 ug/ml
From the text: as §1

[10] = target: T4, Histones; assay: AtheNA, Ab 25 ug/ml
From the text: as §1

[11] = target: T5, RNP (ribonucleoprotein); assay: AtheNA, Ab 25 ug/ml
From the text: as §1

[12] = target: T6, Scl-70; assay: AtheNA, Ab 25 ug/ml
From the text: as §1

[13] = target: T7, SSA; assay: AtheNA, Ab 25 ug/ml
From the text: as §1

[14] = target: T8, HIV-1 CH505 transmitted/founder gp120 Env (HIV-1); assay: SPR, antibody captured on anti-human Ig Fc, gp120 injected
T8 construct: domain: gp120; also called CH505.TF gp120; CH505 TF gp120 Env

[15] = target: T9, Centromere B (UniProt P07199 1-599); assay: AtheNA, Ab 50 ug/ml
T9 construct: also called Cent B
T9 sequence: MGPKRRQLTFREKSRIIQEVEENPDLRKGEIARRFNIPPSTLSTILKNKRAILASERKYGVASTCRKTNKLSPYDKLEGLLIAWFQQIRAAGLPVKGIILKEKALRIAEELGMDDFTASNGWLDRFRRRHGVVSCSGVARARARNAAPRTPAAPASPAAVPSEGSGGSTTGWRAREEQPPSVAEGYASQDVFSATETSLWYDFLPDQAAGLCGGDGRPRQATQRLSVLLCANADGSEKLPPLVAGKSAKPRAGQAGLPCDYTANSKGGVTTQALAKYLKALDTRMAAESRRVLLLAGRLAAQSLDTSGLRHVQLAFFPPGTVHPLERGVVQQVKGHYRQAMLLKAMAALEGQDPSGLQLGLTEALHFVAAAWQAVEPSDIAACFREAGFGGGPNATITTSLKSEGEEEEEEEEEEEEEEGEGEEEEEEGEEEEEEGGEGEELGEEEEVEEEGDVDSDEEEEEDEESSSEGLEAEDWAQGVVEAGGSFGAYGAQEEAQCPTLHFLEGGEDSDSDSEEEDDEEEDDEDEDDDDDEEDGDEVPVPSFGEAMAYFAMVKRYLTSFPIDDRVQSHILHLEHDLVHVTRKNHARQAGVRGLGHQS

[16] = target: T2, SSB; assay: AtheNA, Ab 50 ug/ml; remark: listed apart in the source
[17] = target: T4, Histones; assay: AtheNA, Ab 50 ug/ml; remark: listed apart in the source
[18] = target: T5, RNP (ribonucleoprotein); assay: AtheNA, Ab 50 ug/ml; remark: listed apart in the source
[19] = target: T6, Scl-70; assay: AtheNA, Ab 50 ug/ml; remark: listed apart in the source
[20] = target: T7, SSA; assay: AtheNA, Ab 50 ug/ml; remark: listed apart in the source
[21] = target: T5, RNP (ribonucleoprotein); assay: AtheNA, Ab 12.5 ug/ml

B1: CH493 (antibody, V domains shown)
VH: QVRLLQYGGGVKRPGASMTISCVASGYNFNDYYIHWVRQAPGQGLELMGWIDPSGGRTDYAGAFGDRVSMYRDKSMNTLYMDLRSLRSGDTAMYYCVRNVGTAGSLLHYDHWGLGVMVTVSS
VL: EIVLTQSPATLSVSPGERVTLSCRASQSVRNNLAWYRQKRGQAPRLLIYGASTRATGIPARFSGSGSGTEFTLTISSMQSEDFAVYYCQQYNNWWTFGQGTKVEIK
notes: also called CH235.9; DH493
[1]
  EC50 (read off the curve): ~2 µg/mL
[2]
  AtheNA signal: 70
[3]
  AtheNA signal: 37
[4]
  AtheNA signal: 166
[5]
  AtheNA signal: 69
[6]
  AtheNA signal: 36
[7]
  AtheNA signal: 155
[8]
  AtheNA signal: 38
[9]
  AtheNA signal: 53
[10]
  AtheNA signal: 202
[11]
  AtheNA signal: 55
[12]
  AtheNA signal: 34
[13]
  AtheNA signal: 100

B2: CH241 (antibody, V domains shown)
VH: QVQLVQSGAAVKKPGASVRVSCKASGYTFTSSHIHWVRQAPGQGPEWMGMIDPSVGRPTTAGKFQGRVTMTRDRYTSTAYMDLSSLRSEDTAVYYCARSVETTGSLLYFDYWGQGTLITVSS
VL: EIVLTQSPATLSVSPGERATLSCRASQSVRSNIAWYQQKPGQAPRLLIHGASTRATGIPGRFSGSGSGPEFTLAISSVQSEDFAVYYCQQYNDWWTFGQGTKVEIK
[14]
  Kd: 0.7 nM
  koff: 0.00033 s⁻¹

B3: CH557 (antibody, V domains shown)
VH: QVRLAQYGGGVKRLGATMTLSCVASGYTFNDYYIHWVRQAPGQGFELLGYIDPANGRPDYAGALRERLSFYRDKSMETLYMDLRSLRYDDTAMYYCVRNVGTAGSLLHYDHWGSGSPVIVSS
VL: EIVLTQSPATLSASPGERVTLTCRASRSVRNNVAWYQHKGGQSPRLLIYDASTRAAGVPARFSGSASGTEFTLAISNLESEDFTVYFCLQYNNWWTFGQGTRVDIK
notes: also called CH235.12; CH557_4A/293i
[15]
  AtheNA signal: 46 relative luminescence units
[16]
  AtheNA signal: 15 relative luminescence units
[17]
  AtheNA signal: 16 relative luminescence units
[18]
  AtheNA signal: 10 relative luminescence units
[19]
  AtheNA signal: 6 relative luminescence units
[20]
  AtheNA signal: 6 relative luminescence units
[21]
  AtheNA signal: 3 relative luminescence units
